T1: LexA-TR (bacterial; rat, UniProt P0A7C2 1-202; P18113 170-461, limits assumed)
T1 construct: also called Lex fusion TR
T1 sequence (looked up): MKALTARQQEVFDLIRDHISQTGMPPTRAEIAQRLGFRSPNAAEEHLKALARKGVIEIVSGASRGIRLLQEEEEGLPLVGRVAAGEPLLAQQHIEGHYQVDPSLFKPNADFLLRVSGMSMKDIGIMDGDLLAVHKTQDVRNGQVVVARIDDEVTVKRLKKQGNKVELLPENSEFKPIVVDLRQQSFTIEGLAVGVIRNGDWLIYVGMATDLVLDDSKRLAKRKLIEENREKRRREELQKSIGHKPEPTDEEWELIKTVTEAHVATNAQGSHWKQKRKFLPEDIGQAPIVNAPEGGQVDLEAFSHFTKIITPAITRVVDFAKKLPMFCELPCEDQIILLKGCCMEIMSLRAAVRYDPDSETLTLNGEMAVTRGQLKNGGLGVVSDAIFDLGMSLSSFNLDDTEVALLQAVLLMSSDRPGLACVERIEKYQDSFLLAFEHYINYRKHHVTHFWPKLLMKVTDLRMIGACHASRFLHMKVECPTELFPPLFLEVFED

T2: B42-RIP110 (mouse, UniProt Q5U5Q9 20-727)
T2 construct: Clone from a mouse liver cDNA library fused to B42; also called B42-110; B42 fusion 110
T2 sequence: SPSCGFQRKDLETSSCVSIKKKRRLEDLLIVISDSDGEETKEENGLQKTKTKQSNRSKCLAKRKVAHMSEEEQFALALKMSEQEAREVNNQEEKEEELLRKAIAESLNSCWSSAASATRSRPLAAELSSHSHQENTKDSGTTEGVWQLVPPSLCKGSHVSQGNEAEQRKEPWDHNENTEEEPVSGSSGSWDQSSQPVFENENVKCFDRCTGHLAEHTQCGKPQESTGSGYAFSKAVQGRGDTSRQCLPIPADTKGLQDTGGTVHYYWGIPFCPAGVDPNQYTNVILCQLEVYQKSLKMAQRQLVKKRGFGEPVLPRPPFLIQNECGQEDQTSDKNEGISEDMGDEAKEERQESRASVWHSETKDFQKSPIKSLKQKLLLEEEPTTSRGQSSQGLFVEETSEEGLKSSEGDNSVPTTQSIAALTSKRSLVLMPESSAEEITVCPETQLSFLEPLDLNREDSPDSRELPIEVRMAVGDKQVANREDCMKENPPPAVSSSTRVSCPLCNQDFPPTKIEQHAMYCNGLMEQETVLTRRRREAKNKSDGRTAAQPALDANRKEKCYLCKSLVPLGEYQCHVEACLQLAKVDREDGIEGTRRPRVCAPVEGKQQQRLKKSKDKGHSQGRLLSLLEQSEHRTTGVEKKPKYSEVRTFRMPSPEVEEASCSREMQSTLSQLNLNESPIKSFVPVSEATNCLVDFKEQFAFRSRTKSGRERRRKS

B1: B42-RIP13 (other, not shown: large carriers)
chain: DALAALVDAAASAPQMDVSKTKESKHEAARLEENLRSRSAAVSEQQQLEQKNLEVEKRSVQCVCTSSALPSGKAQPHASVVYSEAGKDKGPPPKSRYEEELRTRGKTTITAANFIDVTITRQIASDKDARERGSQSSDSSSSLSSHRYETASDAIEVISPASSPAPPQEKPQAYQPDMVKANQAENESTRQYEGPLHHYRSQQESPSPQQQPPLPPSSQSEGMGQVPRTHRLITLADHICQIITQDFARNQVPSQPSTSTFQTSPSALSSTPVRTKTSSRYSPESQSQTVLHPRPGPRVSPENLVDKSRGSRPGKSPERSHIPSEPYEPISPPQGPAVHEKQDSMLLLSQRGVDPAEQRSDSRSPGSISYLPSFFTKLESTSPMVKSKKQEIFRKLNSSGGGDSDMAAAQPGTEIFNLPAVTTSGAVSSRSHSFADPASNLGLEDIIRKALMGSFDDKVEDHGVVMSHPVGIMPGSASTSVVTSSEARRDEGEPSPHAGVCKPKLINKSNSRKSKSPIPGQSYLGTERPSSVSSVHSEGDYHRQTPGWAWEDRPSSTGSTQFPYNPLTIRMLSSTPPTQIACAPSAITQAAPHQQNRIWEREPAPLLSAQYETLSDSDD
B2: B42-PPAR clone starting at amino acid 84 (other, mouse, UniProt P23204 84-468, looked up, not shown: large carriers)
chain: PVIPASTDESPGSALNIECRICGDKASGYHYGVHACEGCKGFFRRTIRLKLVYDKCDRSCKIQKKNRNKCQYCRFHKCLSVGMSHNAIRFGRMPRSEKAKLKAEILTCEHDLKDSETADLKSLGKRIHEAYLKNFNMNKVKARVILAGKTSNNPPFVIHDMETLCMAEKTLVAKMVANGVEDKEAEVRFFHCCQCMSVETVTELTEFAKAIPGFANLDLNDQVTLLKYGVYEAIFTMLSSLMNKDGMLIAYGNGFITREFLKNLRKPFCDIMEPKFDFAMKFNALELDDSDISLFVAAIICCGDRPGLLNIGYIEKLQEGIVHVLKLHLQSNHPDDTFLFPKLLQKMVDLRQLVTEHAQLVQVIKKTESDAALHPLLQEIYRDMY
notes: range 84-C-terminus; Only the start is stated; also called PPAR (three clones)
B3: B42-PPAR clone starting at amino acid 91 (other, mouse, UniProt P23204 91-468, looked up, not shown: large carriers)
chain: DESPGSALNIECRICGDKASGYHYGVHACEGCKGFFRRTIRLKLVYDKCDRSCKIQKKNRNKCQYCRFHKCLSVGMSHNAIRFGRMPRSEKAKLKAEILTCEHDLKDSETADLKSLGKRIHEAYLKNFNMNKVKARVILAGKTSNNPPFVIHDMETLCMAEKTLVAKMVANGVEDKEAEVRFFHCCQCMSVETVTELTEFAKAIPGFANLDLNDQVTLLKYGVYEAIFTMLSSLMNKDGMLIAYGNGFITREFLKNLRKPFCDIMEPKFDFAMKFNALELDDSDISLFVAAIICCGDRPGLLNIGYIEKLQEGIVHVLKLHLQSNHPDDTFLFPKLLQKMVDLRQLVTEHAQLVQVIKKTESDAALHPLLQEIYRDMY
notes: range 91-C-terminus; Only the start is stated; also called PPAR (four clones)
B4: B42-PPAR (plasmid isolated from the screening, as used in Table 1) (other, mouse, UniProt P23204 91-468, looked up, not shown: large carriers)
chain: B3 chain
notes: 'For B42-PPAR, the plasmid isolated from the screening was used'; also called B42 fusion PPAR
B5: LexA-RXR (other, bacterial;human, UniProt P0A7C2 1-202, looked up)
chain: MKALTARQQEVFDLIRDHISQTGMPPTRAEIAQRLGFRSPNAAEEHLKALARKGVIEIVSGASRGIRLLQEEEEGLPLVGRVAAGEPLLAQQHIEGHYQVDPSLFKPNADFLLRVSGMSMKDIGIMDGDLLAVHKTQDVRNGQVVVARIDDEVTVKRLKKQGNKVELLPENSEFKPIVVDLRQQSFTIEGLAVGVIRNGDWLLAMGMKREAVQEERQRGKDRNENEVESTSSANEDMPVERILEAELAVEPKTETYVEANMGLNPSSPNDPVTNICQAADKQLFTLVEWAKRIPHFSELPLDDQVILLRAGWNELLIASFSHRSIAVKDGILLATGLHVHRNSAHSAGVGAIFDRVLTELVSKMRDMQMDKTELGCLRAIVLFNPDSKGLSNPAEVEALREKVYASLEAYCKHKYPEQPGRFAKLLLRLPALRSIGLKCLEHLFFFKLIGDTPIDTFLMEMLEAPHQMT
notes: also called Lex fusion RXR

Tests used:
[1] = molecular target: B5; assay: cell-based or functional assay
[2] = molecular target: B5; assay: yeast interaction trap screen; clones showing specific interaction with LexA-RXR; three clones starting at amino acid 84
Method: (§1) From 3×10^6 primary yeast transformants, a number of β-gal expressing colonies were identified in two independent screens carried out in the presence or absence of 9-cis-RA. Since expression of the B42-cDNA fusion proteins was induced by growth on galactose, candidates obtained from each condition were tested for galactose-dependent expression of both β-gal and LEU2, in the presence or absence of 9-cis-RA, using appropriate indicator plates (see below).
(§2) Candidates showing specific interaction with LexA-RXR were sequenced across the B42 fusion junction using an appropriate vector primer, and additional sequence was determined. The deduced amino acid sequences were compared to those in the GenBank and EMBL databases using the GCG (Devereux et al., Nucleic Acids Res. 12:387–395, 1984) and BLAST programs (Altschul et al., J. Mol. Biol. 215:403–410, 1990). […] All of these clones included intact ligand binding domains, as expected from the fact that the major heterodimerization function lies within that domain. For PPAR (Issemann et al., Nature 347:645–650, 1990), three clones started at amino acid 84, just N-terminal to the DNA binding (C) domain, four others started at 91, within the C domain, and one at 170, just past the C domain. For RAR (Leroy et al., EMBO J. 10:59–69), all six clones started at amino acid 132, within the C domain.

[3] = molecular target: B5; assay: yeast interaction trap screen; clones showing specific interaction with LexA-RXR; four clones starting at amino acid 91
Method: as §1, §2

[4] = molecular target: T1, LexA-TR; assay: yeast interaction trap, X-gal plate, with T3; W = white (no interaction)
Method: (§3) Interactions of the RIP clones with other superfamily members, including RAR, TR, the glucocorticoid receptor (GR), and MB67, an orphan isolated in this lab (Baes et al., Mol. Cell. Biol. 14:1544–1552, 1994) were also tested using a series of appropriate LexA fusions. In particular, the experiments shown in Table 1 were carried out as follows. Yeast transformants containing a lacZ reporter gene under the control of LexA binding sites and the indicated B42- and Lex-fusion protein expression vectors were transferred onto galactose-Ura⁻His⁻Trp⁻ plates containing X-gal and incubated for two days. Relative levels of β-galactosidase activity were estimated and are depicted as follows: B, blue (strong interaction); LB, light blue (weak interaction); W, white (no interaction); nt, not tested. At least three separate colonies were tested on the same plate for interaction. To test the effects of ligands, 100 µl of a 10^-6M solution of the appropriate ligand was spread onto plates just before inoculation of cells (9-cis-RA for RXR, T3 for TR, and all-trans-RA for RAR). For B42-PPAR, the plasmid isolated from the screening was used. Both full length and truncated RAR fusions to LexA were tested with identical results for all the B42 fusions except B42-110, which was tested only with the full length fusion.

[5] = molecular target: T2, B42-RIP110; assay: yeast interaction trap, X-gal plate, with 9-cis-RA; B = blue (strong interaction)
Method: as §3

[6] = molecular target: B1; assay: as above
Method: as §3

With B1 the “β-gal expression (lacZ reporter under LexA binding sites, yeast liquid culture)” value [1] was roughly 3 fold.

B2: binds [2].

B3: binds [3].

B4: no binding [4].

B5: binds [5]; binds [6].
